Assays:
[1] = biological target: T1, VLD-Tetramer (pMHC tetramer with WT1 peptide …); test: flow cytometry, VLD-Tetramer staining of engineered T cells; TRAC RNP only
T1 construct: Staining reagent; also called VLD (Wilms' tumor antigen) tetramer; TCR specific pMHC tetramer
Experimental: (§1) Four to 12 days after RNP nucleofection, edited T cells (200 ul/200,000 cells) were collected in a 96 well round bottom plate and spun down at 500 g for 5 minutes. Cells were then resuspended in an antibody mixture containing a combination of antibodies targeting CD3, CD4, CD8, CD45RO, CD45RA, CD27, CCR7, CD62L, and/or the TCR specific pMHC tetramer or TCR specific Vbeta chain antibody. The mixture was incubated for 45 minutes at room temperature in the dark. Samples were spun down at 500 g for 5 minutes, cell pellets collected, and resuspended in 1:10,000 DAPI (Biolegend—#422801) in FACS buffer. Flow cytometry was then performed using the cytoflex according to the manufacturer's instructions.
(§2) T cells were evaluated with additional engineered TCRs for the impact of endogenous beta chains on pairing of both the inserted alpha chain and inserted beta chain. The experiment was performed as described herein except tetramer staining was used to measure MFI and the AAV inserts in Table 31 were used for transduction.

[2] = biological target: T2, … (VLD) WT1 peptide pulsed on target cells (HLA-02.01 positive T2 cell line; OCI-AML3); test: cell-based or functional assay
[3] = biological target: T1, VLD-Tetramer (pMHC tetramer with WT1 …); test: flow cytometry, VLD-Tetramer staining of engineered T cells; TRAC + TRBC RNP
Experimental: as §1, §2

[4] = biological target: T2, … (VLD) WT1 peptide pulsed on target …; test: cell-based or functional assay; remark: listed apart in the source
[5] = biological target: T3, … (RMF) WT1 peptide pulsed on target cells (HLA-02.01 positive T2 cell line; OCI-AML3); test: cell-based or functional assay
[6] = biological target: T2, … (VLD) WT1 peptide pulsed on target …; test: cell-based or functional assay; remark: listed apart in the source
[7] = biological target: T2, … (VLD) WT1 peptide pulsed on target …; test: cell-based or functional assay; remark: listed apart in the source
[8] = biological target: T3, … (RMF) WT1 peptide pulsed on target …; test: cell-based or functional assay; remark: listed apart in the source
[9] = biological target: T2, … (VLD) WT1 peptide pulsed on target …; test: cell-based or functional assay; remark: listed apart in the source
[10] = biological target: T3, … (RMF) WT1 peptide pulsed on target …; test: cell-based or functional assay; remark: listed apart in the source

B1: TCR-G (WT1-specific T-cell receptor) (TCR, V domains shown)
V domain 1: DQQVKQNSPSLSVQEGRISILNCDYTNSMFDYFLWYKKYPAEGPTFLISISSIKDKNEDGRFTVFLNKSAKHLSLHIVPSQPGDSAVYFCAARGQGNLIFGKGTKLSVKP
V domain 2: EAGVAQSPRYKIIEKRQSVAFWCNPISGHATLYWYQQILGQGPKLLIQFQNNGVVDDSQLPKDRFSAERLKGVDSTLKIQPAKLEDSAVYLCASSLYRGEQYFGPGTRLTVTE
notes: also called AV15-TCR-G
- Mean % Tetramer+ (CD4+) [1]: 77.5%
- Mean % Tetramer+ (CD8+) [1]: 73.6%
- Mean Tetramer MFI (CD4+) [1]: 101000 MFI
- Mean Tetramer MFI (CD8+) [1]: 102000 MFI
- IL2 release; TRAC only; 0 nM VLD; T2 [2]: 338 pg/mL
- IL2 release; TRAC only; 0.005 nM VLD; T2 [2]: 326 pg/mL
- IL2 release; TRAC only; 0.05 nM VLD; T2 [2]: 284 pg/mL
- IL2 release; TRAC only; 0.5 nM VLD; T2 [2]: 305 pg/mL
- IL2 release; TRAC only; 5 nM VLD; T2 [2]: 442 pg/mL
- IL2 release; TRAC only; 50 nM VLD; T2 [2]: 1050 pg/mL
- IL2 release; TRAC only; 500 nM VLD; T2 [2]: 1570 pg/mL
- IL2 release; TRAC/TRBC; 0 nM VLD; T2 [2]: 306 pg/mL
- IL2 release; TRAC/TRBC; 0.005 nM VLD; T2 [2]: 196 pg/mL
- IL2 release; TRAC/TRBC; 0.05 nM VLD; T2 [2]: 198 pg/mL
- IL2 release; TRAC/TRBC; 0.5 nM VLD; T2 [2]: 248 pg/mL
- IL2 release; TRAC/TRBC; 5 nM VLD; T2 [2]: 351 pg/mL
- IL2 release; TRAC/TRBC; 50 nM VLD; T2 [2]: 764 pg/mL
- IL2 release; TRAC/TRBC; 500 nM VLD; T2 [2]: 1200 pg/mL
- Mean % Tetramer+ (CD4+) [3]: 85.3%
- Mean % Tetramer+ (CD8+) [3]: 81.9%
- Mean Tetramer MFI (CD4+) [3]: 251000 MFI
- Mean Tetramer MFI (CD8+) [3]: 190000 MFI
- Caspase 3/7 integrated intensity; TRAC only; 0 nM VLD; T2 [4]: 12200
- Caspase 3/7 integrated intensity; TRAC only; 0.005 nM VLD; T2 [4]: 21000
- Caspase 3/7 integrated intensity; TRAC only; 0.05 nM VLD; T2 [4]: 199000
- Caspase 3/7 integrated intensity; TRAC only; 0.5 nM VLD; T2 [4]: 1.01e+06
- Caspase 3/7 integrated intensity; TRAC only; 5 nM VLD; T2 [4]: 1.14e+06
- Caspase 3/7 integrated intensity; TRAC only; 50 nM VLD; T2 [4]: 1.28e+06
- Caspase 3/7 integrated intensity; TRAC only; 500 nM VLD; T2 [4]: 1.31e+06
- Caspase 3/7 integrated intensity; TRAC/TRBC; 0 nM VLD; T2 [4]: 12400
- Caspase 3/7 integrated intensity; TRAC/TRBC; 0.005 nM VLD; T2 [4]: 21000
- Caspase 3/7 integrated intensity; TRAC/TRBC; 0.05 nM VLD; T2 [4]: 311000
- Caspase 3/7 integrated intensity; TRAC/TRBC; 0.5 nM VLD; T2 [4]: 964000
- Caspase 3/7 integrated intensity; TRAC/TRBC; 5 nM VLD; T2 [4]: 1.26e+06
- Caspase 3/7 integrated intensity; TRAC/TRBC; 50 nM VLD; T2 [4]: 1.04e+06
- Caspase 3/7 integrated intensity; TRAC/TRBC; 500 nM VLD; T2 [4]: 1.19e+06
- Caspase 3/7 integrated intensity; TRAC only; 500 nM RMF; T2 [5]: 4950
- Caspase 3/7 integrated intensity; TRAC/TRBC; 500 nM RMF; T2 [5]: 6800
- IFN-gamma release; TRAC/TRBC; 50 nM VLD; T2 [6]: 23600
- IFN-gamma release; TRAC/TRBC; 500 nM VLD; T2 [6]: 31600
- IFN-gamma release; only TRAC; 50 nM VLD; T2 [6]: 23700
- IFN-gamma release; only TRAC; 500 nM VLD; T2 [6]: 27500
- % CD4+ TNFa+ IFNg+; TRAC/TRBC; 0 nM VLD; T2 [7]: 2.1%
- % CD4+ TNFa+ IFNg+; TRAC/TRBC; 0.005 nM VLD; T2 [7]: 1.6%
- % CD4+ TNFa+ IFNg+; TRAC/TRBC; 0.05 nM VLD; T2 [7]: 0.9%
- % CD4+ TNFa+ IFNg+; TRAC/TRBC; 0.5 nM VLD; T2 [7]: 0.6%
- % CD4+ TNFa+ IFNg+; TRAC/TRBC; 5 nM VLD; T2 [7]: 0.2%
- % CD4+ TNFa+ IFNg+; TRAC/TRBC; 50 nM VLD; T2 [7]: 0.1%
- % CD8+ TNFa+ IFNg+; TRAC/TRBC; 0 nM VLD; T2 [7]: 0.4%
- % CD8+ TNFa+ IFNg+; TRAC/TRBC; 0.005 nM VLD; T2 [7]: 7.6%
- % CD8+ TNFa+ IFNg+; TRAC/TRBC; 0.05 nM VLD; T2 [7]: 28.7%
- % CD8+ TNFa+ IFNg+; TRAC/TRBC; 0.5 nM VLD; T2 [7]: 46.5%
- % CD8+ TNFa+ IFNg+; TRAC/TRBC; 5 nM VLD; T2 [7]: 63.1%
- % CD8+ TNFa+ IFNg+; TRAC/TRBC; 50 nM VLD; T2 [7]: 71.4%
- % CD4+ TNFa+ IFNg+; TRAC/TRBC; 50 nM RMF; T2 [8]: 2.2%
- % CD8+ TNFa+ IFNg+; TRAC/TRBC; 50 nM RMF; T2 [8]: 0.4%
- % CD4+ CD107a+; TRAC/TRBC; 0 nM VLD; T2 [9]: 4.62%
- % CD4+ CD107a+; TRAC/TRBC; 0.005 nM VLD; T2 [9]: 5.06%
- % CD4+ CD107a+; TRAC/TRBC; 0.05 nM VLD; T2 [9]: 4.23%
- % CD4+ CD107a+; TRAC/TRBC; 0.5 nM VLD; T2 [9]: 4.74%
- % CD4+ CD107a+; TRAC/TRBC; 5 nM VLD; T2 [9]: 4.44%
- % CD4+ CD107a+; TRAC/TRBC; 50 nM VLD; T2 [9]: 4.52%
- % CD8+ CD107a+; TRAC/TRBC; 0 nM VLD; T2 [9]: 3.15%
- % CD8+ CD107a+; TRAC/TRBC; 0.005 nM VLD; T2 [9]: 12.2%
- % CD8+ CD107a+; TRAC/TRBC; 0.05 nM VLD; T2 [9]: 34.2%
- % CD8+ CD107a+; TRAC/TRBC; 0.5 nM VLD; T2 [9]: 53.3%
- % CD8+ CD107a+; TRAC/TRBC; 5 nM VLD; T2 [9]: 65.8%
- % CD8+ CD107a+; TRAC/TRBC; 50 nM VLD; T2 [9]: 73.2%
- % CD4+ CD107a+; TRAC/TRBC; 50 nM RMF; T2 [10]: 4.67%
- % CD8+ CD107a+; TRAC/TRBC; 50 nM RMF; T2 [10]: 2.82%
